From US20040248198A1 (ST JUDE CHILDREN S RESEARCH HOSPITAL, published 2004)
Where no end group is shown, it is not given here.

T1: His-tagged mArfN37 (mouse)
T1 construct: Captured on the SPR chip through a covalently attached Tetra-His antibody; also called His-mArfN37; His-tagged mArf37; not shown: thrombin-cleavable poly-His tag
T1 chain: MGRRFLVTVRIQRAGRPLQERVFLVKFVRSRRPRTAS

B1: 280-294 (peptide)
peptide: VYQAGESDTDSFEED
modifications: not fully specified
notes: also called Hdm2 library peptide, residues 280-294
B2: 220-234 (peptide)
peptide: SNPDLDAGVSEHSGD
modifications: not fully specified
notes: also called Hdm2 library peptide, residues 220-234
B3: 215-229 (peptide)
peptide: STGTPSNPDLDAGVS
modifications: not fully specified
notes: also called Hdm2 library peptide, residues 215-229
B4: 310-324 (peptide)
peptide: EMNPPLPSHCNRCWA
modifications: not fully specified; cysteine pairing not given here
notes: also called Hdm2 library peptide, residues 310-324
B5: 330-344 (peptide)
peptide: LPEDKGKDKGEISEK
modifications: not fully specified
notes: also called Hdm2 library peptide, residues 330-344
B6: 265-279 (peptide)
peptide: GQELSDEDDEVYQVT
modifications: not fully specified
notes: also called Hdm2 library peptide, residues 265-279
B7: 260-274 (peptide)
peptide: SLSEEGQELSDEDDE
modifications: not fully specified
notes: also called Hdm2 library peptide, residues 260-274
B8: 325-339 (peptide)
peptide: LRENWLPEDKGKDKG
modifications: not fully specified
notes: also called Hdm2 library peptide, residues 325-339
B9: 320-334 (peptide)
peptide: NRCWALRENWLPEDK
modifications: not fully specified
notes: also called Hdm2 library peptide, residues 320-334
B10: 285-299 (peptide)
peptide: ESDTDSFEEDPEISL
modifications: not fully specified
notes: also called Hdm2 library peptide, residues 285-299
B11: 300-314 (peptide)
peptide: ADYWKCTSCNEMNPP
modifications: not fully specified; cysteine pairing not given here
notes: also called Hdm2 library peptide, residues 300-314
B12: 315-329 (peptide)
peptide: LPSHCNRCWALRENW
modifications: not fully specified; cysteine pairing not given here
notes: also called Hdm2 library peptide, residues 315-329
B13: 230-244 (peptide)
peptide: EHSGDWLDQDSVSDQ
modifications: not fully specified
notes: also called Hdm2 library peptide, residues 230-244
B14: 210-224 (peptide)
peptide: SSSSESTGTPSNPDL
modifications: not fully specified
notes: also called Hdm2 library peptide, residues 210-224
B15: 91-105 (peptide)
peptide: HSHPTRARRCPGGLP
modifications: not fully specified
notes: also called human p14Arf library peptide, residues 91-105
B16: 106-120 (peptide)
peptide: GHAGGAAPGRGAAGR
modifications: not fully specified
notes: also called human p14Arf library peptide, residues 106-120
B17: 41-55 (peptide)
peptide: AAVALVLMLLRSQRL
modifications: not fully specified
notes: also called human p14Arf library peptide, residues 41-55
B18: 111-125 (peptide)
peptide: AAPGRGAAGRARCLG
modifications: not fully specified
notes: also called human p14Arf library peptide, residues 111-125
B19: 66-80 (peptide)
peptide: HDDGQRPSGGAAAAP
modifications: not fully specified
notes: also called human p14Arf library peptide, residues 66-80
B20: 21-35 (peptide)
peptide: RVFVVHIPRLTGEWA
modifications: not fully specified
notes: also called human p14Arf library peptide, residues 21-35
B21: 116-130 (peptide)
peptide: GAAGRARCLGPSARG
modifications: not fully specified
notes: also called human p14Arf library peptide, residues 116-130
B22: 31-45 (peptide)
peptide: TGEWAAPGAPAAVAL
modifications: not fully specified
notes: also called human p14Arf library peptide, residues 31-45
B23: 71-85 (peptide)
peptide: RPSGGAAAAPRRGAQ
modifications: not fully specified
notes: also called human p14Arf library peptide, residues 71-85
B24: 61-75 (peptide)
peptide: PRRPGHDDGQRPSGG
modifications: not fully specified
notes: also called human p14Arf library peptide, residues 61-75
B25: 81-95 (peptide)
peptide: RRGAQLRRPRHSHPT
modifications: not fully specified
notes: also called human p14Arf library peptide, residues 81-95
B26: 46-60 (peptide)
peptide: VLMLLRSQRLGQQPL
modifications: not fully specified
notes: also called human p14Arf library peptide, residues 46-60
B27: 56-70 (peptide)
peptide: GQQPLPRRPGHDDGQ
modifications: not fully specified
notes: also called human p14Arf library peptide, residues 56-70
B28: 26-40 (peptide)
peptide: HIPRLTGEWAAPGAP
modifications: not fully specified
notes: also called human p14Arf library peptide, residues 26-40
B29: 51-65 (peptide)
peptide: RSQRLGQQPLPRRPG
modifications: not fully specified
notes: also called human p14Arf library peptide, residues 51-65
B30: 96-110 (peptide)
peptide: RARRCPGGLPGHAGG
modifications: not fully specified
notes: also called human p14Arf library peptide, residues 96-110
B31: 76-90 (peptide)
peptide: AAAAPRRGAQLRRPR
modifications: not fully specified
notes: also called human p14Arf library peptide, residues 76-90

Target: T1, His-tagged mArfN37
Experiment: SPR (Biacore), His-tagged mArfN37 captured by anti-His antibody, Hdm2 peptide as analyte, reference cell subtracted
Procedure: (§1) Surface Plasmon Resonance. Binding studies were performed using a Biacore 3000 surface plasmon resonance (SPR) instrument (Biacore, Inc.). A Tetra-His™ Antibody (Qiagen, Inc.; Cat. #34670) was covalently attached to a carboxymethylated gold surface (C-1 chip; Biacore, Inc.). The carboxymethyl groups on the surface were activated with N-ethyl-N-(3-dimethylaminopropyl) carbodiimide (EDC) and N-hydroxysuccinimide (NHS) and the antibody was attached at pH 7.4 in 20 mM sodium phosphate buffer, 150 mM NaCl (PBS). Reactive sites remaining on the surface were blocked by reaction with ethanolamine. The His-tagged ligand was attached to the antibody by injecting a […] solution of the ligand in 10 mM HEPES, 150 mM NaCl, pH 7.4 (HBS-N buffer, Biacore) at a flow rate of 10 μL/Min through the flow cell. A reference cell was prepared similarly except that no His-tagged ligand was added. Binding was measured by flowing the non-His-tagged analyte through the reference and ligand-containing flow cells in sequence. Prior to injection of ligands, the chip surfaces were equilibrated in HBS-N buffer. Changes in the SPR response due to solvent differences and the injection process were monitored by injection of HBS-N buffer alone. Regeneration of the chip surface to remove bound analyte and ligand was accomplished by two 100 μL injections of 10 mM glycine, pH 2.0 through both flow cells. Data reported is-the difference in SPR signal between the flow cell containing analyte and the reference cell. Duplicate injections were made and the SPR response values reported are the average of these two injections.
A similar approach using short synthetic peptides and SPR was used to map the segments of Hdm2 that bind mArfN37 (FIG. 5c). […] The first of these as Arf-binding segment is termed “H1” and the second is termed segment “H2”.

binding result | Binder
no binding (tested: not given) | B1
no binding (tested: not given) | B2
binds | FSVEFEVESLDSEDY (not fully specified) [245-259]
binds | WLDQDSVSDQFSVEF (not fully specified) [235-249]
no binding (tested: not given) | GKDKGEISEKAKLEN (not fully specified) [335-349]
no binding (tested: not given) | B3
no binding (tested: not given) | B4
no binding (tested: not given) | B5
no binding (tested: not given) | B6
no binding (tested: not given) | B7
no binding (tested: not given) | B8
no binding (tested: not given) | B9
no binding (tested: not given) | B10
no binding (tested: not given) | B11
no binding (tested: not given) | PEISLADYWKCTSCN (not fully specified; cysteine pairing not given here) [295-309]
no binding (tested: not given) | B12
no binding (tested: not given) | DSEDYSLSEEGQELS (not fully specified) [255-269]
no binding (tested: not given) | B13
no binding (tested: not given) | B14

Target: T2, His-tagged Hdm2 210-304 (human, UniProt Q00987 210-304)
T2 construct: not shown: thrombin-cleavable poly-His tag from pET28a
T2 sequence (Q00987 210-304): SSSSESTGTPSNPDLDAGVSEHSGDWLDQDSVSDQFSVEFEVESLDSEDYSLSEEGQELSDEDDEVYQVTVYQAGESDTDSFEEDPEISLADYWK
Experiment: SPR (Biacore), His-tagged Hdm2 210-304 captured by anti-His antibody, human Arf peptide as analyte, reference cell subtracted
Procedure: as §1
Two libraries of peptides 15 amino acids in length were synthesized based on the sequence of exon 1β of mouse p19^Arf and the entire sequence of human p14^Arf. The sequence for the first peptide in each library corresponded to the first 15 amino acids of the protein sequences. […] This approach yielded two libraries of overlapping peptides spanning mouse p19^Arf residues 1-64 and human p14^Arf residues 1-132. The ability of these peptides to bind Hdm2 fragments was determined using the surface plasmon resonance (SPR) technique with a Biacore 3000 instrument.

binding result | Binder
no binding (tested: not given) | B15
no binding (tested: not given) | B16
no binding (tested: not given) | B17
no binding (tested: not given) | B18
no binding (tested: not given) | B19
no binding (tested: not given) | B20
no binding (tested: not given) | B21
no binding (tested: not given) | B22
no binding (tested: not given) | B23
no binding (tested: not given) | B24
no binding (tested: not given) | B25
no binding (tested: not given) | B26
no binding (tested: not given) | B27
no binding (tested: not given) | B28
no binding (tested: not given) | PGGLPGHAGGAAPGR (not fully specified) [101-115]
no binding (tested: not given) | B29
no binding (tested: not given) | B30
no binding (tested: not given) | B31
